# Biological target: the molecule itself
# Assay: crystal structure; PaFabB C161A lacking the His-tag (9-23 mg/mL) in 20 mM Tris-HCl, 150 mM NaCl, 1 mM DTT, pH 7.4; sitting drop, 20°C; 0.2 M sodium iodide, 0.1 M Bis-Tris propane pH 7.5, PEG 3350, ethylene glycol; space group C 2 2 21, 2 protein molecules in the asymmetric unit; 1.3 Å
protein,measurement,value
"Pseudomonas aeruginosa FabB C161A (3-oxoacyl-[acyl-carrier-protein] synthase 1), without His-tag (enzyme, FabB (3-oxoacyl-[acyl-carrier-protein] synthase 1) of P. aeruginosa PA14, ORF PA14_43690, with the point mutation C161A; gene synthesised and cloned NdeI/BamHI into pET-28a(+)-TEV; 808 protein residues modelled in the dimer; also called PaFabB C161A; cleaved PaFabB C161A; not shown: His6, N-terminal, cleaved) MRRVVITGLGIVSCLGNDKDTVSANLRAGRPGIRFNPSYAEMGLRSHVSGSVDLNLEELIDRKVFRFMGDAAAYAYLAMEQAIKDSGLTPEQISNPRTGLIAGSGGASTLNQMEAIDTLREKGVKRIGPYRVTRTMGSTVSACLATPFQIKGVNYSISSAAATSAHCIGQAMEQIQLGKQDVVFAGGGEEEHWSQSCLFDAMGALSTQYNETPEKASRAYDAKRDGFVIAGGGGMVVVEELEHALKRGAKIYAEIVGYGATSDGYDMVAPSGEGAIRCMQQALATVDAPIDYLNTHGTSTPVGDVAEIRGVREVFGDKAPAISSTKSLSGHSLGAAGVHEAIYCLLMMEGGFIAGSANIDELDPEVADLPILRETRENAKLDTVMSNSFGFGGTNATLVLKRWQG",stoichiometry N,2

# — PMC8804906, “Crystal structure of Pseudomonas aeruginosa FabB C161A, a template for structure-based design for new antibiotics” (F1000Research, 2021)
